# Assay results reported in publication PMC9295118, “Tungsten Enzyme Using Hydrogen as an Electron Donor to Reduce Carboxylic Acids and NAD^+” (ACS Catalysis, 2022).
# T1: BaDH (Aromatoleum aromaticum, UniProt Q5P459)
# T1 construct: gene adh; recombinant, expressed in E. coli BL21(DE3), purified; details in supplement
# T1 sequence (Q5P459 1-362): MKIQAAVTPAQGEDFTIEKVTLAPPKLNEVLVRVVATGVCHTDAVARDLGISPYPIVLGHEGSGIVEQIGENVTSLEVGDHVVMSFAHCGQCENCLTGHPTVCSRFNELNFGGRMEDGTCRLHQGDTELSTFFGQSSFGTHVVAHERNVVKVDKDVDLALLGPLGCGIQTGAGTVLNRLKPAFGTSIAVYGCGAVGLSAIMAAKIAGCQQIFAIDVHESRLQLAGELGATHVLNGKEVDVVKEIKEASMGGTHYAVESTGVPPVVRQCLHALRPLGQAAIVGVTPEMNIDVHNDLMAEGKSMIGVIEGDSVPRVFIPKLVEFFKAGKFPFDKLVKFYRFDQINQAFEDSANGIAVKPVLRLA
# What was measured:
# [1] = biological target: T1, BaDH; experiment: coupled assay with AORAa, NADPH at […] nm and HPLC of benzyl alcohol; type: biochemical; settings: 100 mM citric buffer pH 5.5, 30 °C, benzaldehyde formed in situ by AORAa
# [2] = substrate: NC(=O)c1ccc[n+]([C@@H]2O[C@H](COP(=O)(O)OP(=O)(O)OC[C@H]3O[C@@H](n4cnc5c(N)ncnc54)[C@H](O)[C@@H]3O)[C@@H](O)[C@H]2O)c1; experiment: purified protein; type: biochemical, Aromatoleum aromaticum; settings: 2.5% H2 as electron donor, 100 mM Tris/HCl pH 8.0, 30 °C, anaerobic, FAD gamma-subunit site expected
# [3] = substrate: O=C(O)c1ccccc1; experiment: purified protein; type: biochemical, Aromatoleum aromaticum; settings: 2.5% H2 as electron donor, 0.6 mM NADPH, 100 mM citric buffer pH 5.5, 30 °C, W-cofactor beta-subunit site
# [4] = substrate: O=Cc1ccccc1; experiment: steady-state kinetics, initial rates of benzaldehyde oxidation with NAD+; type: biochemical, Aromatoleum aromaticum; settings: 1 mM NAD+, Tris/HCl pH 8.0, 30 °C, aerobic, W-cofactor beta-subunit site
# Text: steady-state kinetics, initial rates of benzaldehyde oxidation with NAD+ on AORAa
Molecule,"coupled assay with AORAa, NADPH at 365 nm and HPLC of benzyl alcohol [1]",Km [2] [µM],Vmax [2] [µmol/min/mg],kcat [2] [s⁻¹],kcat/Km [2] [M⁻¹ s⁻¹],Km [3] [µM],kcat [3] [s⁻¹],Km [4] [µM],Vmax [4] [µmol/min/mg],kcat [4] [s⁻¹],kcat/Km [4] [M⁻¹ s⁻¹]
O=Cc1ccccc1 [benzaldehyde],it also catalyzed the reduction of benzaldehyde with either NADH or NADPH,–,–,–,–,–,–,–,–,–,–
NC(=O)C1=CN([C@@H]2O[C@H](COP(=O)(O)OP(=O)(O)OC[C@H]3O[C@@H](n4cnc5c(N)ncnc54)[C@H](OP(=O)(O)O)[C@@H]3O)[C@@H](O)[C@H]2O)C=CC1 [NADPH],"confirming that NADPH was only turned over by BaDH, not by AORAa",–,–,–,–,–,–,–,–,–,–
"AORAa (Aromatoleum aromaticum EbN1) (protein, full-length AorABC, N-terminal Twin-Strep-tag on AorA, co-expressed with AorDE in Aromatoleum evansii; (alpha-beta)2-gamma complex, 218 kDa; with Aldehyde oxidoreductase polyferredoxin (iron-sulfur) subunit alpha) chain 1: MGWNRKVLRVNLAEGTCTPEPLNMQWADEYLGSRGLATKYLVSETDPKVDPLSPDNKMIMATGPLTGTMASTGGRYTVVTKGPLTGAIACSNSGGFFGAEMKFAGWDMVIFEGRSPTPVYLFIENERAELRDASYLWGRSCWETEESIRAQHQDPLIRVSSIGRAGENQVMFACIVNDLHRAAGRSGVGAVMGSKNLKAVAIRGTKGVSGIRDFPGFVRATSEAKKVLAGNPVTSEGLPKFGTQVLMNVINEMGALPTRNHRDVQFEDASKISAEAMHEKRPSDGKPQLVTNAACFGCTIACGRISAIDKTHFTVKNNPKYWGASGGLEYEAAWALGAANGVGDLEALQYANLLCNEQGMDPISFGATVGAAMELYETGVLTKERIGLDAPFGSADALAKLAEMTATGEGFGKEIGLGSKRLCEKYGHPELSMSVKGQEFPAYDSRGIQGMGLAYATSNRGACHLRGYTVASEVLGVPVKTDPHVIEGKAELVKAFQDATAVFDSAGICVFTSFAWTLADVQPQIAAACDGDWSMDKLATVGERIWNMERQFNNAAGLGAQDDNLPPRLTSEPAKSGPAKGMVNRLAEMLPEYYGVRGWTPEGTPTPETLSRLGLS chain 2: MKHVILGNGPAGVIAAETLRRAAPTDDILLFGSEDAPPYSRMAIPYLLEGNIDESGTWLRKSPGHFDRLRIHEMRGRAVSLDSERRRILFDDGHFESWDRLLIATGSHPVRPPIPGIDLPEVQTCWTLEDARAIARFATPGARVLQLGAGFIGCIIMEALAARGVELTVVEMGDRMVPRMMTPTAGGMIRKWVEDQGVRVVTNAGVSRIDCRASNDAPLDVTLSTGEVVVADLVIVAAGVAPNIAFLEATPVHVAKGVLVDDRLQTSVPGIFAAGDVAEAPDLFTGAHLVAAIQPNAADQARVAALNMAGHEARLKGVLAINVLDTLGLISSSFGQWWGEERERGGAGVEHVDEAAYRYLSLQFKDDVLIGATSIGLTEHVGALRGLIHGRVRLGEWKERLLHSPLQFVDAYIARSQQPMALVR",–,21.7 ± 2.7,3.7,13.4,600000,33700,1.4,39.3 ± 6.6,33.8,123,3.1e+06
